Reference: US20220112288A1 (published 2022)

Columns and labels:
[1] = biological target: T1, human CD4 on cells (SKW3 cells; human PBMCs) (human, UniProt P01730 26-458); experiment: FACS confirmation, supernatant on human PBMCs, anti-mouse Fc 647, CD4+ gate
T1 construct: whole, on cells; SKW3 CD4 knockout cells served as the negative cell line; also called hCD4

[2] = biological target: T1, human CD4 on cells (SKW3 cells; human …); experiment: FACS confirmation, supernatant on SKW3 WT cells, anti-mouse Fc 647; background gMFI 3300
[3] = biological target: T1, human CD4 on cells (SKW3 cells; human …); experiment: FACS confirmation, supernatant on SKW3 WT cells, anti-human kappa FITC; background gMFI 2500
[4] = biological target: T1, human CD4 on cells (SKW3 cells; human …); experiment: FACS confirmation, supernatant on human PBMCs, anti-mouse Fc 647, CD4+ percent of viable cells
[5] = biological target: T1, human CD4 on cells (SKW3 cells; human …); experiment: FACS primary screen, non-clonal hybridoma supernatant, SKW3 vs SKW3 CD4 knockout cells, anti-mouse Fc A647
[6] = biological target: T1, human CD4 on cells (SKW3 cells; human …); experiment: FACS primary screen, non-clonal hybridoma supernatant, SKW3 vs SKW3 CD4 knockout cells, anti-human kappa FITC
huCD4-HIS [7] = biological target: T2, huCD4-HIS (human, UniProt P01730 26-390, limits assumed); experiment: ELISA binning, competitor Ibalizumab; 100 ng/mL huCD4-HIS, anti-HIS HRP detection; background 45, max binding 3000000
T2 construct: the ELISA binning is not described in the text of this stretch

[8] = biological target: T1, human CD4 on cells (SKW3 cells; human …); experiment: FACS binning on SKW3 cells pre-incubated with supernatant; competitor OKT4-A488, its signal read; background 2163, max binding 8200
[9] = biological target: T1, human CD4 on cells (SKW3 cells; human …); experiment: FACS binning on SKW3 cells pre-incubated with supernatant; competitor RPA-T4-PE-Dazzle 594, its signal read; background 783, max binding 15000
[10] = biological target: T1, human CD4 on cells (SKW3 cells; human …); experiment: FACS binning on SKW3 cells pre-incubated with supernatant; competitor OKT4a read with anti-human A647 secondary; background 5000, max binding 35000
[11] = biological target: T3, human CD4 on the surface of SKW3 cells or human PBMCs (human, UniProt P01730 26-458); experiment: FACS confirmation, supernatant on human PBMCs, anti-mouse Fc A647
T3 construct: whole, on cells; SKW3 CD4 knockout cells served as the negative cell line; also called hCD4; SKW3 WT

[12] = biological target: T3, human CD4 on the surface of SKW3 cells …; experiment: FACS confirmation, supernatant on human PBMCs, anti-mouse Fc A647, CD4+ gate
[13] = biological target: T3, human CD4 on the surface of SKW3 cells …; experiment: FACS confirmation, supernatant on SKW3 WT cells, anti-mouse Fc A647; background gMFI 3300
[14] = biological target: T3, human CD4 on the surface of SKW3 cells …; experiment: FACS confirmation, supernatant on SKW3 WT cells, anti-human kappa FITC; background gMFI 2500
[15] = biological target: T3, human CD4 on the surface of SKW3 cells …; experiment: FACS primary screen, non-clonal hybridoma supernatant, SKW3 vs SKW3 CD4 KO cells, anti-mouse Fc A647
[16] = biological target: T3, human CD4 on the surface of SKW3 cells …; experiment: FACS primary screen, non-clonal hybridoma supernatant, SKW3 vs SKW3 CD4 KO cells, anti-human kappa FITC
[17] = biological target: T3, human CD4 on the surface of SKW3 cells …; experiment: FACS binning on SKW3 cells; competitor OKT4-Alexa Fluor 488 (its signal read); background 2163, max binding 8200
[18] = biological target: T3, human CD4 on the surface of SKW3 cells …; experiment: FACS binning on SKW3 cells; competitor RPA-T4-PE-Dazzle 594 (its signal read); background 783, max binding 15000
huCD4-HIS [19] = biological target: T4, huCD4-HIS (human, UniProt P01730 26-390, limits assumed); experiment: ELISA binning; competitor ibalizumab; 100 ng/mL huCD4-HIS, anti-HIS HRP detection; background 45, max binding 3000000
T4 construct: not shown: HIS tag

[20] = biological target: T3, human CD4 on the surface of SKW3 cells …; experiment: FACS binning on SKW3 cells; competitor OKT4a, anti-human A647 secondary (its signal read); background 5000, max binding 35000

Binder | PBMCs, anti-mFc 647 CD4+ gate - RL1 Binding [1] | SKW3 WT anti-mFc 647, gMFI [2] [gMFI] | SKW3 WT anti-hu Kappa FITC, gMFI [3] [gMFI] | PBMCs, anti-mFc 647 CD4+ Percent Bound of Viable [4] [%] | SKW3 WT vs KO anti-mFc-647 [5] [fold] | SKW3 WT vs KO anti-hKappa-FITC [6] [fold] | Ibalizumab ELISA binning signal (huCD4-HIS [7]) | SKW3 FACS Binning OKT4 A488 [8] | SKW3 FACS Binning RPA-T4-PE-Dazzle 594 [9] | SKW3 FACS Binning OKT4a anti-hu A647 Secondary [10] | PBMCs, anti-mFc 647 CD4+ Percent Bound of Viable [11] [%] | PBMCs, anti-mFc 647 CD4+ gate - RL1 Binding [12] | SKW3 WT anti-mFc 647, gMFI [13] [gMFI] | SKW3 WT anti-hu Kappa FITC, gMFI [14] [gMFI] | SKW3 WT vs KO anti-mFc-647 [15] [ratio] | SKW3 WT vs KO anti-hKappa-FITC [16] [ratio] | OKT4 A488 signal [17] | RPA-T4-PE-Dazzle 594 signal [18] | Ibalizumab ELISA binning signal (huCD4-HIS [19]) | OKT4a anti-hu A647 Secondary signal [20]
75110_02I16A (antibody, IgG1, V domains shown, Tested as non-clonal AlivaMab Mouse Kappa hybridoma supernatant: human variable domains and human kappa, mouse Fc; also called 75110_02116A) VH: QVQLQQWGAGLLKPSETLSLTCDVYGGSFSGYYWTWIRQPPGKGLEWIGEINHSGTTNSNPSLKSRVTISVDTSKSQFSLRLSSVTAADTAVYFCTRELNWFDPWGQGTLVTVSS VL: DIQMTQSPSSVSASVGDRVTITCRASQDIANWLAWYQQKPGKAPQLLIYAASSLLGGVPSRFSGSGSGADFTLTISSLHPEDFATYYCQQANSFPYTFGQGTKLEIK | 218000 | 19400 | 5740 | 29 | 3 | 1.7 | 823000 | 9810 | 2590 | 30700 |  |  |  |  |  |  |  |  |  | 
75110_11D03A (antibody, V domains shown, Tested here as non-clonal hybridoma supernatant from AlivaMab Mouse Kappa mice (detected with anti-mouse Fc and anti-human kappa)) VH: EVQLVESGGGLVQPGGSLRLSCAASGFTFSSYWMSWVRQAPGKGLEWVANINQDGNEKYYVDSVKGRFTISRDNAKNSLFLQMNSLRAEDTAVYYCAREGGQWLALDYWGQGALVTVSS VL: DIQMTQSPSSVSASVGDRVTITCRASQGISSWLAWYQQKPGKAPKFLISGASSLQSGVPSRFSGSGSGTDFTLTISSLQPEDFATYYCQQANSFPWTFGQGTKVEIK |  |  |  |  |  |  |  |  |  |  | 29 | 190000 | 21100 | 4000 | 2.6 | 1 | 4180 | 13100 | 1.63e+06 | 43700
75110_07H07A (antibody, V domains shown, Tested here as non-clonal hybridoma supernatant from AlivaMab Mouse Kappa mice (detected with anti-mouse Fc and anti-human kappa)) VH: EVQVVESGGGLVQPGGSLRLSCAASGFTFSSYWMSWVRQAPGKGLEWVANIKEEGSEKYYVDSVKGRFTISRDNAKNSLYLQMNSLRAEDTAVYYCVREGGQWLALDYWGQGTLVTVSS VL: DIQMTQSPSSVSGSVGDRVTITCRASQGISSWLAWYQQKPGKAPKLLIFGASSLQSGVPSRFSGSGSGTDFTLTISSLQPEDFATYYCQQANSFPWTFGQGTKVQIK |  |  |  |  |  |  |  |  |  |  | 27 | 234000 | 34300 | 8510 | 5.7 | 2.3 | 2060 | 14900 | 2.11e+06 | 39400
75110_09N20A (antibody, V domains shown, Tested here as non-clonal hybridoma supernatant from AlivaMab Mouse Kappa mice (detected with anti-mouse Fc and anti-human kappa)) VH: EVQLVESGGGLVQPGGSLRLSCAASGFTFSSYWMSWVRQAPGKGLEWVANINEDGSEKYYVDSVKGRFTISRDNAKNSLYLQMNSLRAEDTAVYYCVREGGQWLALDYWGQGTLVTVSS VL: DIQMTQSPSSVSASVGDRVTITCRASQGISSWLAWYQQKPGKAPKLLIYAASSLQSGVPSSFSGSGSGTDFTLTINSLQPEDFATYYCQQANSFPWTFGQGTKVAIK |  |  |  |  |  |  |  |  |  |  | 33 | 287000 | 24800 | 5880 | 5.4 | 2.2 | 2700 | 14700 | 1.76e+06 | 46600
75110_01A06A (antibody, V domains shown, Tested here as non-clonal hybridoma supernatant from AlivaMab Mouse Kappa mice (detected with anti-mouse Fc and anti-human kappa)) VH: EVQLVESGGGLVQPGGSLRLSCAASGFTFSSYWMSWVRQAPGKGLEWVANINEDGNEKYYVDSVKGRLTISRDNAKNSLYLQMNSLRAEDTAVYFCAREGGQWLSLDYWGQGALVTVSS VL: DIQMTQSPSSVSASVGDRVSITCRASQGISSWLAWYQQKPGKAPKILIYGASSLQSGVPSRFSGSGSGTDFTLTISSLQPEDFATYYCQQANSFPWTFGQGTKVEIK |  |  |  |  |  |  |  |  |  |  | 31 | 321000 | 32300 | 5930 | 7.5 | 2.4 | 2140 | 14700 | 1.26e+06 | 43700
75110_09G15A (antibody, V domains shown, Tested here as non-clonal hybridoma supernatant from AlivaMab Mouse Kappa mice (detected with anti-mouse Fc and anti-human kappa)) VH: EVQLVESGGGLVQPGGSLRLSCAASGFTFSDYWMSWVRQAPGKGLEWVANINQDGSEKYSVDSVKGRFTISRDNAKNSLYLQMNSLRAEDTAIFYCAREGGQWLALDYWGQGTLVTVSS VL: DIQMTQSPSSVSASVGDRVTITCRASQGISSWLAWYQQKPGKAPKLLIYGASSLQSGVPSRFSGSGSGTDFTLTINSLQPEDFTTYYCQQANIFPWTFGQGTKVEIK |  |  |  |  |  |  |  |  |  |  | 28 | 304000 | 22300 | 5810 | 4.8 | 2 | 2990 | 14800 | 1.99e+06 | 44600
75110_04K10A (antibody, V domains shown, Tested here as non-clonal hybridoma supernatant from AlivaMab Mouse Kappa mice (detected with anti-mouse Fc and anti-human kappa)) VH: EVQLVESGGGLVQPGGSLRLSCAASGFTFSSYWMSWVRQAPGKGLEWVANINQDGSEKYYVDSVKGRFTISRDNAKNSLYLQLNSLRAEDTAMYYCAREGGQWLSLDYWGQGTLVTVSS VL: DIQMTQSPSSVSASVGDRVTITCRASQGISSWLAWYQQKPGKAPKVLIYGVSSFQSGVPSRFSGSGSGTDFILTISSLQPEDFATYYCQQANSFPWTFGQGTKVEIK |  |  |  |  |  |  |  |  |  |  | 33 | 346000 | 36700 | 6710 | 5 | 1.5 | 2760 | 9800 | 1.13e+06 | 43100
75110_03D16A (antibody, V domains shown, Tested here as non-clonal hybridoma supernatant from AlivaMab Mouse Kappa mice (detected with anti-mouse Fc and anti-human kappa)) VH: EVQLVESGGGLVQPGGSLRLSCAASGFTFSSYWMSWVRQAPGKGLEWVANINQDGGEKYYVDSVKGRFTISRDNAKNSLYLQMNSLRAEDTAVYYCVREGGQWLALDYWGQGTLVTVSS VL: DIQMTQSPSSVSASVGDRVTITCRASQGISSWLTWYQQKPGKAPKFLIYAASSLQSGVPSRFSGSGFGTDFTLTISSLQPEDFATYYCQQANSFPWTFGQGTKVEIK |  |  |  |  |  |  |  |  |  |  | 31 | 319000 | 36000 | 7600 | 6.5 | 2.8 | 2280 | 12300 | 663000 | 35900
